Test results from US20210095028A1 (NANJING LEGEND BIOTECH, published 2021).
Where a chain is given by its changes, count along the chain named.

B1: 64G1E9B4VH1_VL1.M1 (antibody, human IgG1, V domains shown)
VH: EVQLVQSGAEVKKPGSSVKVSCKASGYTFTEHVIHWVRQAPGQGLEWMGGFNPNHDGTIYNQIFRGRVTITADKSTSTAYMELSSLRSEDTAVYYCARAAKLLFAMDYWGQGTTVTVSS
VL: DIQMTQSPSSLSASVGDRVTITCRASQHVSNAVVWYQQKPGKAPKLLIYSPSYRFTGVPSRFSGSGSGTDFTLTISSLQPEDFATYYCQQHYSTPWTFGGGTKVEIK
notes: Humanized antibody, variable domains fused with the constant region of human IgG1; also called 64G1VH1_VL1.M1
B2: 64G1E9B4VH1.M1_VL1.M1 (antibody, human IgG1, V domains shown)
VH: B1 VH with D56G
VL: B1 VL
notes: Humanized antibody, variable domains fused with the constant region of human IgG1; also called 64G1VH1.M1_VL1.M1
B3: 64G1E9B4 chimeric (antibody, V domains shown)
VH: EVQLQQSGPELVKPGASVKISCKTSGYTFTEHVIHWVKQSHGKSLEWIGGFNPNHDGTIYNQIFRGKATLTVDKSSSTAYMELRSLTSEDSAVYFCTRAAKLLFAMDYWGQGTSVTVSS
VL: DIVMTQSHKFMSTSIGDRVSITCKASQHVSNAVVWYQQKPGQSPKLLIYSPSYRFTGVPDRFTGSGSGTDFTFTISSVQAEDLAVYYCQQHYSTPWTFGGGTKLEIK
notes: also called 64G1 Chimeric
B4: 100C4E7D11VH1_VL1 (antibody, V domains shown)
VH: EVQLVESGGGLVKPGGSLRLSCAASGFTFSFYTMSWVRQAPGKGLEWVSTISSGGGSTYYSDSVKGRFTISRDNAKNSLYLQMNSLRAEDTAVYYCARSLPVDYWGQGTTVTVSS
VL: EIVLTQSPGTLSLSPGERATLSCTASSSVSSTYLHWYQQKPGQAPRLLIYSTSNLASGIPDRFSGSGSGTDFTLTISRLEPEDFAVYYCHLYHHSPYTFGGGTKVEIK
notes: Humanized antibody, variable domains fused with the constant region of human IgG1; also called 100C4VH1_VL1

molecular target: T1, human TIGIT over-expressed on cells (human, UniProt Q495A1 22-244); assay: FACS, CHO-K1 cells over-expressing human TIGIT
T1 construct: also called CHO-K1/human TIGIT cells; CHO cells expressing human TIGIT
T1 sequence: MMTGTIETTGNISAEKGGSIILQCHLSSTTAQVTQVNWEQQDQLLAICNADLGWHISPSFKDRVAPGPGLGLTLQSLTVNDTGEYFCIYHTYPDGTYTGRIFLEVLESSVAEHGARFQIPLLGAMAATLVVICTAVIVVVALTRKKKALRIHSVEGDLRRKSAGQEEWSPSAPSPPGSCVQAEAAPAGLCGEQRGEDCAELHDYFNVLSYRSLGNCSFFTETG
Method: (§1) Binding affinities of the chimeric anti-human TIGIT monoclonal antibodies and the humanized anti-human TIGIT monoclonal antibodies to human or cynomolgus TIGIT over-expressed on CHO-K1 cells were determined using a fluorescence-activated cell sorting (FACS)-based assay. […] The mixture was equilibrated for 30 minutes at room temperature and washed three times with FACS buffer (PBS containing 1% BSA). iFluor labeled goat anti-mouse IgG as the secondary antibody was added and incubated at room temperature for 45 min. Finally, the cells were washed 3 time with PBS, and the signal was read by FACS BD Calibur. Data was analyzed with PRISM™ (GraphPad Software, San Diego, Calif.) using non-linear regression and EC₅₀ values were calculated.

Row | Bottom (best-fit) | EC50 [nM] | Top (best-fit) | Binder
1 | 3190 | 0.89 | 22900 | B1
2 | 1530 | 0.43 | 24700 | B2
3 | 3600 | 0.47 | 23400 | B3
4 | 4110 | 1.15 | 25200 | B4

molecular target: T1, human TIGIT over-expressed on cells; assay: competition FACS, CHO cells expressing human TIGIT; competitor PVR recombinant protein (column headed EC50, text says IC50)
Method: (§2) To assess the competitive binding on human TIGIT between the chimeric anti-human TIGIT monoclonal antibodies or the humanized anti-human TIGIT monoclonal antibodies and PVR, the chimeric anti-human TIGIT monoclonal antibody or the humanized anti-human TIGIT monoclonal antibody samples were prepared (starting at 300 nM, ≤3-fold serial dilution with 10 concentrations). CHO cells expressing human TIGIT were dissociated from adherent culture flasks and mixed with varying concentrations of each chimeric anti-human TIGIT monoclonal antibody or the humanized anti-human TIGIT monoclonal antibody and 5 μg/ml […] fusion protein having a biotin label. The mixture was equilibrated for 30 minutes at room temperature and washed three times with FACS buffer (PBS containing 1% BSA). PE/Cy5 Streptavidin secondary antibody was then added to the mixtures and incubated for 15 minutes at room temperature. Subsequently, the cells were washed with FACS buffer and analyzed by flow cytometry. Data was analyzed with PRISM™ (GraphPad Software, San Diego, Calif.) using non-linear regression, and IC₅₀ values were calculated (FIG. 7 and Table 13).

Row | IC50 [nM] | Binder
5 | 0.79 | B1
6 | 0.35 | B2
7 | 0.51 | B3
8 | 1.29 | B4

molecular target: T1, human TIGIT over-expressed on cells; assay: cell-based or functional assay

Row | IL-2 secretion in T cell activation, Bottom (best-fit) | IL-2 secretion in T cell activation, EC50 [nM] | IL-2 secretion in T cell activation, Top (best-fit) | Binder
9 | 182 | 1.27 | 508 | B1
10 | 209 | 0.63 | 467 | B2
11 | 204 | 0.66 | 462 | B3
12 | 217 | 5.21 | 435 | B4

molecular target: T1, human TIGIT over-expressed on cells; assay: competition FACS, CHO cells expressing human TIGIT; competitor PVR recombinant protein
Method: as §2

Row | Bottom (best-fit) | Top (best-fit) | Binder
13 | 139 | 820 | B1
14 | 201 | 508 | B2
15 | 197 | 772 | B3
16 | 150 | 755 | B4

molecular target: T2, cynomolgus TIGIT over-expressed on CHO-K1 cells (cynomolgus, UniProt A0A7N9I9V4 89-312); assay: FACS, CHO-K1 cells over-expressing cynomolgus TIGIT
T2 construct: whole, on cells; also called CHO-K1/cynomolgus TIGIT cells
Method: as §1

T2 sequence (A0A7N9I9V4 entry or part of it): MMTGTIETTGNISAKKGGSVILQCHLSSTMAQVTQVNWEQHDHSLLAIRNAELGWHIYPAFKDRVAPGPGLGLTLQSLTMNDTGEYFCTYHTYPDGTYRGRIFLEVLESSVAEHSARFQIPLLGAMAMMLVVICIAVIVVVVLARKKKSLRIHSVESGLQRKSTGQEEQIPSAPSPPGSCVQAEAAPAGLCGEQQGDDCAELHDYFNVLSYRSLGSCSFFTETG

Row | Bottom (best-fit) | EC50 [nM] | Top (best-fit) | Binder
17 | 3010 | 1.65 | 24700 | B1
18 | 5530 | 0.91 | 29200 | B2
19 | 3920 | 1.33 | 25600 | B3
20 | 2830 | 2.85 | 29800 | B4

molecular target: T3, Human TIGIT protein with HIS tag (human, UniProt Q495A1 22-141); assay: SPR Biacore T200; antibody Fc-captured, TIGIT-His analyte
T3 construct: A soluble analyte is probably only the extracellular part; also called human TIGIT recombinant protein; not shown: HIS tag
T3 sequence: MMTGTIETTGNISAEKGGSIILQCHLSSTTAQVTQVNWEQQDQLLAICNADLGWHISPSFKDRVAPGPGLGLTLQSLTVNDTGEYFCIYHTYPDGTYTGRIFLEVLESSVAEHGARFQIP
Method: Binding kinetics of the chimeric anti-human TIGIT monoclonal antibodies and the humanized anti-human TIGIT monoclonal antibodies to human TIGIT were determined using a Surface Plasmon Resonance (SPR) biosensor, BIACORE® T200 (GE Healthcare). Different concentrations of the chimeric anti-human TIGIT monoclonal antibodies or humanized anti-human TIGIT monoclonal antibodies were prepared starting at 50 nM with a 3-fold serial dilution. Each chimeric anti-human TIGIT monoclonal antibody or each humanized anti-human TIGIT monoclonal antibody was immobilized on the sensor chip through the Fc capture method. Human TIGIT protein with a HIS tag was used as the analyte. The dissociation (kd) and association (kₐ) rate constants were obtained using the BIACORE® T200 evaluation software. The apparent equilibrium dissociation constants (KD) were calculated from the ratio of kd over kₐ.

Row | Kd [nM] | koff [s⁻¹] | kon [M⁻¹ s⁻¹] | Binder
21 | 0.15 | 8.8e-05 | 590000 | B1
22 | 0.17 | 0.0001 | 630000 | B2
23 | 0.07 | 6.4e-05 | 910000 | B3
24 | 0.57 | 0.00035 | 610000 | B4
